Data as given in IntAct's records for PubMed 19766572.

B1: Peroxiredoxin-1 (Gallus gallus (Chicken)), P0CB50 (parent)
chain: MSSGKAFIGKPAPDFTATAVMPDGQFKDIKLSDYRGKYVVFFFYPLDFTFVCPTEIIAYSDRADEFKKINCEIIGASVDSHFCHLAWINTPKKQGGLGTMKIPLVSDTKRVIAKDYGVLKEDEGIAYRGLFIIDEKGILRQITINDLPVGRSVDETLRLVQAFQFTDKHGEVCPAGWKPGSDTIKPDVQKSKEYFSKQK
partner: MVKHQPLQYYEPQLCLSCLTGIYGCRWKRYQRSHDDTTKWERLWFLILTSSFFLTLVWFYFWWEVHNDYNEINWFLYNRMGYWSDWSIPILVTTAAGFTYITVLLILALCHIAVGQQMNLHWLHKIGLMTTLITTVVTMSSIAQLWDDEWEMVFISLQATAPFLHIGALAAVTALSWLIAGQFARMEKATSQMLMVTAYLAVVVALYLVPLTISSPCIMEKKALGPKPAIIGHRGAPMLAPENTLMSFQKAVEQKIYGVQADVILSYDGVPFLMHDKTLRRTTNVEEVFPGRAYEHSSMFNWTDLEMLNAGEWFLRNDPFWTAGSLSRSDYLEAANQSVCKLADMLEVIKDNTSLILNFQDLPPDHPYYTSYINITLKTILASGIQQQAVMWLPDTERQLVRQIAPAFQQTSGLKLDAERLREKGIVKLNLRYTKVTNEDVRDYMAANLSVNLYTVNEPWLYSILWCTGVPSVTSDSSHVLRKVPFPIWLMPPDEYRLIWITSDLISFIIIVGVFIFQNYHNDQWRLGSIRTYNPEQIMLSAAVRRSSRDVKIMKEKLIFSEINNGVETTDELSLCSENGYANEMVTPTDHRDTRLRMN

Variants of: B1
Details: with gdpd5_chick GDPD5, Q3KTM2

Variant | effect of a mutation on the interaction
C52S;C173S | disrupting interaction
